# Measurements published in the supplement of paper PMC10567573.
# B1: CDC25A (parent)
# chain: KPIVPTDGKRVIVVFHCEFSSERG
# Variants of: B1
# Test: protein stability index of a GFP-peptide fusion (GPS, HEK-293T) (PSI 1-6); higher = more stable
# Conditions: c terminus: a fixed tail appended
# 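Also: lentivirally expressed fusions sorted by FACS into six bins by GFP to DsRed ratio, PSI derived from sequencing read proportions per bin multiplied by bin number.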
row,Variant,protein stability index
1,KPIVPTDGKRNIVVFHCEFSSERG [V11N],2.14
2,KPIVPTDGKRHIVVFHCEFSSERG [V11H],1.58
3,KPIVPTDGKRTIVVFHCEFSSERG [V11T],1.76
4,KPIVPTDGKREIVVFHCEFSSERG [V11E],3.05
5,KPIVPTDGKRMIVVFHCEFSSERG [V11M],2.06
6,KPIVPTDGKRKIVVFHCEFSSERG [V11K],2.51
7,KPIVPTDGKRDIVVFHCEFSSERG [V11D],2.65
8,KPIVPTDGKRPIVVFHCEFSSERG [V11P],2.31
9,KPIVPTDGKRRIVVFHCEFSSERG [V11R],1.68
10,KPIVPTDGKRGIVVFHCEFSSERG [V11G],2.21
11,KPIVPTDGKRAIVVFHCEFSSERG [V11A],1.93
12,KPIVPTDGKRCIVVFHCEFSSERG [V11C],1.57
13,KPIVPTDGKRLIVVFHCEFSSERG [V11L],2.82
14,KPIVPTDGKRYIVVFHCEFSSERG [V11Y],2.59
15,KPIVPTDGKRSIVVFHCEFSSERG [V11S],2.35
16,KPIVPTDGKRQIVVFHCEFSSERG [V11Q],2.25
17,KPIVPTDGKRIIVVFHCEFSSERG [V11I],3.01
18,KPIVPTDGKRWIVVFHCEFSSERG [V11W],3.24
19,KPIVPTDGKRFIVVFHCEFSSERG [V11F],2.11
20,KPIVPTDGTRVIVVFHCEFSSERG [K9T],2.66
21,KPIVPTDGWRVIVVFHCEFSSERG [K9W],2.4
22,KPIVPTDGVRVIVVFHCEFSSERG [K9V],2.77
23,KPIVPTDGKRVIGVFHCEFSSERG [V13G],2.8
24,KPIVPTDGKRVIFVFHCEFSSERG [V13F],2.33

row,Variant,protein stability index
1,KPIVPTDGKRVIIVFHCEFSSERG [V13I],3.19
2,KPIVPTDGKRVINVFHCEFSSERG [V13N],3.57
3,KPIVPTDGKRVITVFHCEFSSERG [V13T],2.38
4,KPIVPTDGKRVISVFHCEFSSERG [V13S],3.36
5,KPIVPTDGKRVIDVFHCEFSSERG [V13D],3.69
6,KPIVPTDGKRVICVFHCEFSSERG [V13C],1.79
7,KPIVPTDGKRVIWVFHCEFSSERG [V13W],1.79
8,KPIVPTDGKRVIRVFHCEFSSERG [V13R],2.91
9,KPIVPTDGKRVIEVFHCEFSSERG [V13E],3.43
10,KPIVPTDGKRVIYVFHCEFSSERG [V13Y],2.31
11,KPIVPTDGKRVIAVFHCEFSSERG [V13A],2.28
12,KPIVPTDGKRVIMVFHCEFSSERG [V13M],1.16
13,KPIVPTDGKRVIHVFHCEFSSERG [V13H],2.08
14,KPIVPTDGKRVIKVFHCEFSSERG [V13K],3.02
15,KPIVPTDGKRVILVFHCEFSSERG [V13L],2.97
16,KPIVPTDGKRVIQVFHCEFSSERG [V13Q],3.24
17,KPIVPTDGKRVIPVFHCEFSSERG [V13P],3.21
18,KPIVPTDGKKVIVVFHCEFSSERG [R10K],2.51
19,KPIVPTDGKYVIVVFHCEFSSERG [R10Y],2.95
20,KPIVPTDGKWVIVVFHCEFSSERG [R10W],4.02
21,KPIVPTDGKGVIVVFHCEFSSERG [R10G],2.54
22,KPIVPTDGKCVIVVFHCEFSSERG [R10C],3.54
23,KPIVPTDGKNVIVVFHCEFSSERG [R10N],2.39
24,KPIVPTDGKLVIVVFHCEFSSERG [R10L],3.23

row,Variant,protein stability index
1,KPIVPTDGKVVIVVFHCEFSSERG [R10V],2.76
2,KPIVPTDGKMVIVVFHCEFSSERG [R10M],2.6
3,KPIVPTDGKFVIVVFHCEFSSERG [R10F],2.43
4,KPIVPTDGKPVIVVFHCEFSSERG [R10P],3.09
5,KPIVPTDGKAVIVVFHCEFSSERG [R10A],1.93
6,KPIVPTDGKEVIVVFHCEFSSERG [R10E],2.96
7,KPIVPTDGKIVIVVFHCEFSSERG [R10I],1.45
8,KPIVPTDGKSVIVVFHCEFSSERG [R10S],2.33
9,KPIVPTDGKQVIVVFHCEFSSERG [R10Q],2.14
10,KPIVPTDGKDVIVVFHCEFSSERG [R10D],1.77
11,KPIVPTDGKTVIVVFHCEFSSERG [R10T],2.54
12,KPIVPTDGKRVNVVFHCEFSSERG [I12N],2.99
13,KPIVPTDGKRVVVVFHCEFSSERG [I12V],1.63
14,KPIVPTDGKRVHVVFHCEFSSERG [I12H],1.83
15,KPIVPTDGKRVMVVFHCEFSSERG [I12M],2.24
16,KPIVPTDGKRVFVVFHCEFSSERG [I12F],3.2
17,KPIVPTDGKRVPVVFHCEFSSERG [I12P],3.39
18,KPIVPTDGKRVTVVFHCEFSSERG [I12T],2
19,KPIVPTDGKRVQVVFHCEFSSERG [I12Q],2
20,KPIVPTDGKRVWVVFHCEFSSERG [I12W],2.49
21,KPIVPTDGKRVGVVFHCEFSSERG [I12G],3.13
22,KPIVPTDGKRVLVVFHCEFSSERG [I12L],3.39
23,KPIVPTDGKRVAVVFHCEFSSERG [I12A],2.11
24,KPIVPTDGKRVRVVFHCEFSSERG [I12R],1.94

row,Variant,protein stability index
1,KPIVPTDGKRVCVVFHCEFSSERG [I12C],2.1
2,KPIVPTDGKRVEVVFHCEFSSERG [I12E],2.84
3,KPIVPTDGKRVSVVFHCEFSSERG [I12S],1.82
4,KPIVPTDGKRVKVVFHCEFSSERG [I12K],3.13
5,KPIVPTDGKRVDVVFHCEFSSERG [I12D],3.47
6,KPIVPTDGKRVIVQFHCEFSSERG [V14Q],2.24
7,KPIVPTDGKRVIVAFHCEFSSERG [V14A],1.92
8,KPIVPTDGKRVIVIFHCEFSSERG [V14I],2.56
9,KPIVPTDGKRVIVLFHCEFSSERG [V14L],2.17
10,KPIVPTDGKRVIVGFHCEFSSERG [V14G],2.69
11,KPIVPTDGKRVIVDFHCEFSSERG [V14D],3.36
12,KPIVPTDGKRVIVKFHCEFSSERG [V14K],2.43
13,KPIVPTDGKRVIVTFHCEFSSERG [V14T],1.72
14,KPIVPTDGKRVIVFFHCEFSSERG [V14F],1.83
15,KPIVPTDGKRVIVRFHCEFSSERG [V14R],2.09
16,KPIVPTDGKRVIVSFHCEFSSERG [V14S],2.52
17,KPIVPTDGKRVIVEFHCEFSSERG [V14E],2.67
18,KPIVPTDGKRVIVHFHCEFSSERG [V14H],2.54
19,KPIVPTDGKRVIVPFHCEFSSERG [V14P],3.44
20,KPIVPTDGKRVIVMFHCEFSSERG [V14M],1.9
21,KPIVPTDGKRVIVNFHCEFSSERG [V14N],2.35
22,KPIVPTDGKRVIVCFHCEFSSERG [V14C],2.57
